Reference: patent publication US6855515B1, “Autoantigenic fragments, methods and assays” (Merck & Co., Inc., priority 1998, dated 2005)

B1: threonyl tRNA synthetase: autoantigen in autoimmune myositis (protein)
chain: MFEEKASSPSGKMGGEEKPIGAGEEKQKEGGKKKNKEGSGDGGRAELNPWPEYIYTRLEMYNILKAEHDSILAEKAEKDSKPIKVTLPDGKQVDAESWKTTPYQIACGISQGLADNTVIAKVNNVVWDLDRPLEEDCTLELLKFEDEEAQAVYWHSSAHIMGEAMERVYGGCLCYGPPIENGFYYDMYLEEGGVSSNDFSSLEALCKKIIKEKQAFERLEVKKETLLAMFKYNKFKCRILNEKVNTPTTTVYRCGPLIDLCRGPHVRHTGKIKALKIHKNSSTYWEGKADMETLQRIYGISFPDPKMLKEWEKFQEEAKNRDHRKIGRDQELYFFHELSPGSCFFLPKGAYIYNALIEFIRSEYRKRGFQEVVTPNIFNSRLWMTSGHWQHYSENMFSFEVEKELFALKPMNCPGHCLMFDHRPRSWRELPLRLADFGVLHRNELSGALTGLTRVRRFQQDDAHIFCAMEQIEDEIKGCLDFLRTVYSVFGFSFKLNLSTRPEKFLGDIEVWDQAEKQLENSLNEFGEKWELNSGDGAFYGPKIDIQIKDAIGRYHQCATIQLDFQLPIRFNLTYVSHDGDDKKRPVIVHRAILGSVERMIAILTENYGGKWPFWLSPRQVMVVPVGPTCDEYAQKVRQQFHDAKFMADIDLDPGCTLNKKIRNAQLAQYNFILVVGEKEKISGTVNIRTRDNKVHGERTISETIERLQQLKEFRSKQAEEEF
B2: PMS1: autoantigen (protein)
chain: MKQLPAATVRLLSSSQIITSVVSVVKELIENSLDAGATSVDVKLENYGFDKIEVRDNGEGIKAVDAPVMAMKYYTSKINSHEDLENLTTYGFRGEALGSICCIAEVLITTRTAADNFSTQYVLDGSGHILSQKPSHLGQGTTVTALRLFKNLPVRKQFYSTAKKCKDEIKKIQDLLMSFGILKPDLRIVFVHNKAVIWQKSRVSDHKMALMSVLGTAVMNNMESFQYHSEESQIYLSGFLPKCDADHSFTSLSTPERSFIFINSRPVHQKDILKLIRHHYNLKCLKESTRLYPVFFLKIDVPTADVDVNLTPDKSQVLLQNKESVLIALENLMTTCYGPLPSTNSYENNKTDVSAADIVLSKTAETDVLFNKVESSGKNYSNVDTSVIPFQNDMHNDESGKNTDDCLNHQISIGDFGYGHCSSEISNIDKNTKNAFQDISMSNVSWENSQTEYSKTCFISSVKHTQSENGNKDHIDESGENEEEAGLENSSEISADEWSRGNILKNSVGENIEPVKILVPEKSLPCKVSNNNYPIPEQMNLNEDSCNKKSNVIDNKSGKVTAYDLLSNRVIKKPMSASALFVQDHRPQFLIENPKTSLEDATLQIEELWKTLSEEEKLKYEEKATKDLERYNSQMKRAIEQESQMSLKDGRKKIKPTSAWNLAQKHKLKTSLSNQPKLDELLQSQIEKRRSQNIKMVQIPFSMKNLKINFKKQNKVDLEEKDEPCLIHNLRFPDAWLMTSKTEVMLLNPYRVEEALLFKRLLENHKLPAEPLEKPIMLTESLFNGSHYLDVLYKMTADDQRYSGSTYLSDPRLTANGFKIKLIPGVSITENYLEIEGMANCLPFYGVADLKEILNAILNRNAKEVYECRPRKVISYLEGEAVRLSRQLPMYLSKEDIQDIIYRMKHQFGNEIKECVHGRPFFHHLTYLPETT
B3: Caspase-7: precursor of caspase-7 used as substrate for granzyme B (protein, UniProt P55210 2-303, looked up)
pro-form: ADDQGCIEEQGVEDSANEDSVDAKPDRSSFVPSLFSKKKKNVTMRSIKTTRDRVPTYQYNMNFEKLGKCIIINNKNFDKVTGMGVRNGTDKDAEALFKCFRSLGFDVIVYNDCSCAKMQDLLKKASEEDHTNAACFACILLSHGEENVIYGKDGVTPIKDLTAHFRGDRCKTLLEKPKLFFIQACRGTELDDGIQADSGPINDTDANPRYKIPVEADFLFAYSTVPGYYSWRSPGRGSWFVQALCSILEEHGKDLEIMQILTRVNDRVARHFESQSDDPHFHEKKQIPCVVSMLTKELYFSQ
modifications: pro-form
notes: precursor of caspase-7 used as substrate for granzyme B
B4: SRP-72: autoantigen (protein)
chain: ASGGSGGVSVPALWSEVNRYGQNGDFTRALKTVNKILQINKDDVTALHCKVVCLIQNGSFKEALNVINTHTKVLANNSLSFEKAYCEYRLNRIENALKTIESANQQTDKLKELYGQVLYRLERYDECLAVYRDLVRNSQDDYDEERKTNLSAVVAAQSNWEKVVPENLGLQEGTHELCYNTACALIGQGQLNQAMKILQKAEDLCRRSLSEDTDGTEEDPQAELAIIHGQMAYILQLQGRTEEALQLYNQIIKLKPTDVGLLAVIANNIITINKDQNVFDSKKKVKLTNAEGVEFKLSKKQLQAIEFNKALLAMYTNQAEQCRKISASLQSQSPEHLLPVLIQAAQLCREKQHTKAIELLQEFSDQHPENAAEIKLTMAQLKISQGNISKACLILRSIEELKHKPGMVSALVTMYSHEEDIDSAIEVFTQAIQWYQNHQPKSPAHLSLIREAANFKLKYGRKKEAISDLQQLWKQNPKDIHTLAQLISAYSLVDPEKAKALSKHLPSSDSMSLKVDVEALENSAGATYIRKKGGKVTGDSQPKEQGQGDLKKKKKKKKGKLPKNYDPKVTPDPERWLPMRERSYYRGRKKGKKKDQIGKGTQGATAGASSELDASKTVSSPPTSPRPGSAATVSASTSNIIPPRHQKPAGAPATKKKQQQKKKKGGKGGW
B5: glycyl tRNA synthetase: autoantigen in autoimmune myositis (protein)
chain: MDGAGAEEVLAPLRLAVRQQGDLVRKLKEDKAPQVDVDKAVAELKARKRVLEAKELALQPKDDIVDRAKMEDTLKRRFFYDQAFAIYGGVSGLYDFGPVGCALKNNIIQTWRQHFIQEEQILEIDCTMLTPEPVLKTSGHVDKFADFMVKDVKNGECFRADHLLKAHLQKLMSDKKCSVEKKSEMESVLAQLDNYGQQELADLFVNYNVKSPITGNDLSPPVSFNLMFKTFIGPGGNMPGYLRPETAQGIFLNFKRLLEFNQGKLPFAAAQIGNSFRNEISPRSGLIRVREFTMAEIEHFVDPSEKDHPKFQNVADLHLYLYSAKAQVSGQSARKMRLGDAVEQGVINNTVLGYFIGRIYLYLTKVGISPDKLRFRQHMENEMAHYACDCWDAESKTSYGWIEIVGCADRSCYDLSCHARATKVPLVAEKPLKEPKTVNVVQFEPSKGAIGKAYKKDAKLVMEYLAICDECYITEMEMLLNEKGEFTIETEGKTFQLTKDMINVKRFQKTLYVEEVVPNVIEPSFGLGRIMYTVFEHTFHVREGDEQRTFFSFPAVVAPFKCSVLPLSQNQEFMPFVKELSEALTRHGVSHKVDDSSGSIGRRYARTDEIGVAFGVTIDFDTVNKTPHTATLRDRDSMRQIRAEISELPSIVQDLANGNITWADVEARYPLFEGQETGKKETIEE

Key:
Type in all cases: biochemical
granzyme B [1] = target: T1, granzyme B (Homo sapiens, UniProt P10144); test: Susceptibility of autoantigens to cleavage by purified granzyme B (HeLa lysate immunoblot or immunoprecipitates); settings: in vitro
T1 construct: Some of these preparations were used for the further purification of granzyme B (Tschopp, 1994); endogenous in cells; host or cells: YT cells (human NK cell line), cytoplasmic granules
Procedure: To determine whether susceptibility to direct cleavage by granzyme B was an isolated feature of PARP, NuMA and DNA-PKcs shown above, or whether it was a more general feature of autoantigens, a variety of well-defined autoantigens selected from across the spectrum of systemic autoimmune diseases were tested for susceptibility to cleavage by purified granzyume B. The efficiency of cleavage of the substrates by purified granzyme B was also noted (Table 3). Initially, a series of autoantibodies of well-defined specificity were used to immunoblot lysates of HeLa cells that had been incubated in vitro with or without granzyme B. Lysates were pre-treated with iodoacetamide (IAA) to prevent interference by endogenous caspase activity.
To perform these studies, HeLa cells were radiolabeled with [^35S] methionine/cysteine, and proteins were immunoprecipitated using human autoantibodies. Protein A-agarose beads containing washed precipitated proteins were resuspended in buffer supporting the activity of granzyme B, and incubated in the absence or presence of added purified granzyme B. Reaction products were visualized using SDS-PAGE and fluorography. To confirm the validity of this approach, several different autoantigens known to be cleaved by granzyme B, as well as several autoantigens and non-autoantigens that are not cleaved by granzyme B, were tested. Using autoantibodies that both immunoblot and immunprecipitate, the cleavage profiles obtained using granzyme B to cleave molecules in lysates (followed by detection with immunoblotting), and after immunoprecipitation (from [^35S]methionine-labeled HeLa lysate) were compared. Identical results were obtained using these 2 methods for cleaved autoantigens (topoisomerase-1, Mi-2, RNA polymerase II large subunit, Ku-70, PARP, and NOR-90), uncleaved autoantigens (Ku-80, Ro 60k), and control substrates (β-tubulin, vinculin). […] Of note, all these additional autoantigens (with the exception of RNA polymerase I) are targeted in autoimmune myositis. However, two other tRNA synthetases (threonyl tRNA synthetase and glycyl tRNA synthetase) that are also autoantigens in autoimmune myositis, were not cleaved using this approach.

caspase-8 = caspase-8 (Homo sapiens, UniProt Q14790); test: Cleavage of substrates by purified caspase-8; settings: 50 nM purified caspase-8; HeLa lysates treated with iodoacetamide, or radiolabeled IvTT substrate
Procedure: To confirm that these substrates were not cleaved by group III caspases, the substrates were incubated with 50 nM purified caspase-8. Cleavage assays were performed in HeLa cell lysates in which endogenous caspases had first been irreversibly inactivated by 1 mM iodoacetamide (4° C. for 15 min), prior to addition of 5 mM DTT to facilitate exogenous caspase-8 activity. No cleavage of topoisomerase-1, Mi-2, U1-70 kDa, PARP, Ku-70, RNA polymerase II large subunit, SRP-72, NuMA or Ki-67 occurred. Caspase-8 was indeed active in these lysates, as evidenced by robust caspase-3 cleavage products of PARP and U1-70 kDa seen when the IAA ‘poisoning’ step was omitted. Radiolabeled PMS1 and PMS2 (generated by IvTT) were also not cleaved by purified caspase-8.

granzyme B [2] = target: T1, granzyme B; test: In vitro cleavage of substrates by purified granzyme B, kcat/Km from densitometry; settings: ratio of kcat/Km
Procedure: cDNAs for caspase-3, caspase-7, NuMA and PARP were used to drive the synthesis of [^35S]methionine-labeled proteins by coupled transcription/translation in rabbit reticulocyte lysates. For all purified substrates, cleavage reactions were performed in buffer consisting of 50 mM Hepes pH 7.4, 10% sucrose and 5 mM DTT in the presence of the granzyme B concentrations indicated in FIG. 1. After incubation at 37° C. for 15 min, reactions were terminated and samples were electrophoresed on 10% (DNA-PKcs, NuMA), 12% (PARP) or 15% (caspases 3 and 7) SDS-polyacrylamide gels. Radiolabeled proteins and their fragments were visualized by fluorography. Intact and cleaved DNA-PKcs were visualized by immunoblotting with monoclonal antibody 18-2 (Casciola-Rosen et al., 1995).
Catalytic constant (kcat/km) values were calculated essentially as described (Casciola-Rosen et al., 1996). Briefly, subsaturating substrate concentrations were used in each in vitro reaction, and product appearance was assumed to be a first order process. […] Several appropriate densitometry systems are available, e.g. PDI Discovery System, with Quantity One Software, Protein Databases, Inc., (Huntington Station, N.Y.). kcat/Km values were calculated by fitting the dose-response data to the first order rate equation: percent substrate cleavage=100*((1^-e-((kcat*[E]/Km)*time)). […]

T1 sequence (P10144 21-247): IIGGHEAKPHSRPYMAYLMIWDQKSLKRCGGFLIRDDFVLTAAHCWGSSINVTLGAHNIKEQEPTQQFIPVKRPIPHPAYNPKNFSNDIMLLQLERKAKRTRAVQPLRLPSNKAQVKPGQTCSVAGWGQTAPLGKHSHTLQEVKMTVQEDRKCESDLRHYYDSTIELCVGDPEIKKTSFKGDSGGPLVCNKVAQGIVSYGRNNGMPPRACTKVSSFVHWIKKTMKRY
Sequence of caspase-8 (Q14790 217-374 limits assumed, species assumed): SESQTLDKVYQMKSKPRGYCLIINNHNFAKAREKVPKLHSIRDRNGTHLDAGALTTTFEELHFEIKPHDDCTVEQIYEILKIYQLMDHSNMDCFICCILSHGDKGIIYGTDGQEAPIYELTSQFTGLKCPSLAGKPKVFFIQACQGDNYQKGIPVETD
Sequence of caspase-8 (Q14790 385-479 limits assumed, species assumed): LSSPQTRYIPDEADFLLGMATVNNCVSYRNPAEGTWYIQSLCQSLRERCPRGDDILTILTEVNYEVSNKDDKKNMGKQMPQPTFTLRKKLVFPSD

Row | Molecule | susceptibility to cleavage by granzyme B (granzyme B [1]) | cleavage by caspase-8 (caspase-8) | efficiency of granzyme B cleavage relative to caspase-3 precursor (granzyme B [2])
1 | B1 | not cleaved |  | 
2 | B2 | efficiently cleaved | not cleaved | 
3 | B3 |  |  | approximately 6 fold
4 | B4 | efficiently cleaved | No cleavage | 
5 | B5 | not cleaved |  | 
